Laboratory results taken from patent US20120020948A1, “DAG-TYPE AND INDIRECT PROTEIN KINASE C ACTIVATORS AND ANTICOAGULANT FOR THE TREATMENT OF STROKE” (priority 2010, published 2012).

System: rats with focal ischemia (MCAO)
Test: Mortality after focal ischemia (MCAO) stroke
Format: in vivo
Conditions: rTPA i.v. 6 hours after the stroke, with or without bryostatin-1 2 hours later
Method: A transient animal model of focal ischemia was used for these experiments. The middle cerebral artery (MCA) was surgically dissected and occluded in anesthetized rats by ligature, followed by reperfusion after a defined period (about 2 hours). Animal models transient ischemia via occlusion of the MCA (MCAO) are described in, e.g., Sicard and Fisher, Exp. & Transl. Stroke Med. (2009), vol. 1, pp. 1-7.
In contrast, if rTPA was given 6 hours after the stroke, in the absence of subsequent treatment with bryostatin, 44% mortality was observed (N=6 animals).

B1: rTPA: recombinant tissue plasminogen activator, thrombolytic serine protease approved for ischemic stroke (protein, UniProt P00750 36-562, looked up)
Tissue-type plasminogen …: SYQVICRDEKTQMIYQQHQSWLRPVLRSNRVEYCWCNSGRAQCHSVPVKSCSEPRCFNGGTCQQALYFSDFVCQCPEGFAGKCCEIDTRATCYEDQGISYRGTWSTAESGAECTNWNSSALAQKPYSGRRPDAIRLGLGNHNYCRNPDRDSKPWCYVFKAGKYSSEFCSTPACSEGNSDCYFGNGSAYRGTHSLTESGASCLPWNSMILIGKVYTAQNPSAQALGLGKHNYCRNPDGDAKPWCHVLKNRRLTWEYCDVPSCSTCGLRQYSQPQFRIKGGLFADIASHPWQAAIFAKHRRSPGERFLCGGILISSCWILSAAHCFQERFPPHHLTVILGRTYRVVPGEEEQKFEVEKYIVHKEFDDDTYDNDIALLQLKSDSSRCAQESSVVRTVCLPPADLQLPDWTECELSGYGKHEALSPFYSERLKEAHVRLYPSSRCTSQHLLNRTVTDNMLCAGDTRSGGPQANLHDACQGDSGGPLVCLNDGRMTLVGIISWGLGCGQKDVPGVYTKVTNYLDWIRDNMRP
mortality 24 hours later: 44%
